In publication PMC10816986, “The Role of Key Amino Acids of the Human Fe(II)/2OG-Dependent Dioxygenase ALKBH3 in Structural Dynamics and Repair Activity toward Methylated DNA” (International Journal of Molecular Sciences, 2024):
“And” between values parts separate entries of the source, which are not always exact repeats. Identical values can stand only once.

What was measured:
[1] = Equilibrium fluorescence titration with 2OG; assay type: binding; details: 1 µM apoprotein, 25 °C, read-out: Dissociation constant Kd, 2OG
From the text: (§1) To investigate the impact of selected mutations on ALKBH3’s ability to bind its cofactor, co-substrate, and methylated DNA, the fluorescent titration method was employed. It is well-established that enzyme–ligand binding typically leads to a protein conformational change, which in turn can alter the fluorescence intensity of tryptophan and tyrosine residues within the protein sequence. […] In this study, transitional metals (Fe(II), Ni(II), and Co(II)), 2OG, and the m3C substrate served as titrants. Protein fluorescence quenching was measured after the addition of an excess of the ligand to 1 µM of enzyme (Supplementary Figure S2). To determine the equilibrium dissociation constant’s Kd values, the resulting titration curves were analyzed using a non-linear regression algorithm (see Section 4.3 of “Materials and Methods” for details). […] As indicated by the data presented in Table 2, the stability of the wt ALKBH3 apoenzyme’s affinity to various ligands and damaged DNA generally corresponds to the stability of such complexes for AlkB and ALKBH2 enzymes. […] The binding of Ni(II) and Co(II) ions of similar radii was weakened by approximately two-fold. […] This behavior is more characteristic of the bacterial homolog AlkB rather than human ALKBH2 [7].
(§2) The intrinsic tryptophan fluorescence quenching was monitored at the maximum of emission (345 nm, in most cases) using an excitation wavelength of 280 nm, and 5 nm slits. An amount of 2 mM of (NH4)2Fe(SO4)2·6H2O, 2 mM of NiSO4×7H2O, 2 mM of CoSO4·7H2O, 2 mM of 2OG, or 100 µM of m3C substrate was titrated into 1 µM of apoprotein (a free enzyme with no metal or 2OG added) in the presence of 50 mM of HEPES-KOH (pH 7.8), 50 mM of KCl, and 10 mM of MgCl2. When titrating with DNA, the buffer was supplemented with 2 mM of EDTA. The dissociation constant Kd for a model of one-step binding (E + L ↔ EL) was determined using Equations (2)–(5) and a non-linear regression algorithm in the OriginPro 8.1 software (OriginLab Corp., Northampton, MA, USA):(2) Kd=E[L]/[EL] (3) F=f0+f1E+f2[EL] (4) e0=E+[EL] (5) l0=L+[EL] where F is the observed fluorescence intensity at any given ligand (L) concentration; f0 is the background fluorescence; f1 and f2 are partial fluorescence intensities of the free enzyme (E) and enzyme–ligand complex (EL), respectively; e0 and l0 are total concentrations of the enzyme and ligand.
(§3) Figure S2. Equilibrium binding of the wild-type and mutant ALKBH3 proteins to transition metals, 2OG, or m3C-containing DNA. The quenching of the enzyme ﬂuorescence is shown as a function of Fe(II) (A), Ni(II) (B), Co(II) (C), 2OG ( D), and single-stranded m3C substrate (E). The protein concentration was 1 µM. In the course of titration by Fe(II), a sodium ascorbate (1mM) was added to keep the metal in a reduced state. Experimental data points were ﬁtted to a single-site binding mode l (see “Materials and Methods”). Each trace represents the average of three technical […]
(§4) (1 picture or pasted object on this page, not shown here)

[2] = Equilibrium fluorescence titration with Fe(II); assay type: binding; details: 1 µM apoprotein, 25 °C; read-out: Dissociation constant Kd, Fe(II)
From the text: as §1, §2, §3, §4

[3] = Thermal denaturation followed by CD spectroscopy; assay type: physicochemical; details: for Tm: apoprotein 0.2 mg/mL, 10 mM potassium phosphate pH 7.8, 50 mM (NH4)2SO4; for ΔH (enthalpy of unfolding) / ΔS (entropy of unfolding): apoprotein, single-stage model; for ΔG^298: calculated from ΔH and ΔS at 298 K
Experimental: The effect of substitutions of conserved amino acids in the active site of ALKBH3 on its thermal stability was studied by circular dichroism (CD) spectroscopy combined with thermal denaturation of the samples. The CD data were collected for wt and mutant apoproteins at various temperatures (25–70 °C) with 2–5 °C intervals (Supplementary Figure S3). […] Melting profiles expressed as a temperature dependence of the mean residue ellipticity at 218 nm were largely sigmodal, indicating the presence of a single transition between the folded and unfolded state (Figure 6B).
The melting profiles were analyzed quantitatively using characteristic wavelengths between 208 and 222 nm by a single-stage model.
Thermal stability experiments were performed under the same conditions. The spectra were collected from 25 to 70 °C, with the samples incubated at each temperature for 3–5 min before measuring. After that, each sample was gradually cooled to 25 °C and the spectrum was recorded again to observe possible refolding of the protein. Melting curves were corrected for background, transformed to the mean residue ellipticity units, and smoothed using the Savitzky–Golay method with a polynomial order of 3. Values of [θ] at wavelengths of 208 and 218 nm as a function of temperature were used to determine the thermodynamics of folding. The values of Tm and ΔH were determined by non-linear regression analysis with the help of Equations (6)–(8):(6) θt=θu+θf−θuK/1+K, (7) K=exp(ΔH/1.987·tt/Tm−1)=exp(−ΔH−t·ΔS/1.987·t), (8) ΔG=−RTlnK where θt—the mean residue ellipticity (in deg·cm^2·dmol^−1) at any given temperature t; θu—the mean residue ellipticity of the unfolded protein; θf—the mean residue ellipticity of the folded protein; K—the constant of unfolding; Tm—the melting temperature; ΔH—the enthalpy of unfolding, ΔS—the entropy of unfolding.
Figure 6 Thermal stability of wt and mutant ALKBH3 proteins measured by CD spectroscopy. (A) Spectra of wt ALKBH3 between 180 and 270 nm at 25 °C (light blue), after heating to 70 °C (dark blue), and cooling again to 25 °C (dashed light blue). (B) Representative melting profiles of wt (blue), Y143F (yellow), Y143A (green), L177A (red), and H191A ALKBH3 (violet) derived from the θ values at 218 nm. The unfolding transitions were monitored 0.2 mg/mL of the apoprotein in 10 mM Potassium Phosphate (pH 7.8) and 50 mM (NH4)2SO4.

Molecule | Kd ([1]; listed as wt) [µM] | Kd [1] [µM] | Kd [2] [µM] | Tm [3] | Tm ([3]; listed as wt) [°C] | ΔH (enthalpy of unfolding) [3] [kcal/mol] | ΔS (entropy of unfolding) [3] | ΔH (enthalpy of unfolding) ([3]; listed as wt) [kcal/mol] | ΔG^298 [3] [kcal/mol] | increase in ΔH relative to wt [3] [kcal/mol] | increase in ΔS relative to wt [3] [cal/mol·K] | reduction in melting temperature relative to wt [3] [°C]
wt ALKBH3: wild-type human Fe(II)/2OG-dependent dioxygenase ALKBH3 with N-terminal His-tag, expressed in E. coli (protein, UniProt Q96Q83 1-286, looked up, N-terminal His-tag, wild-type human Fe(II)/2OG-dependent dioxygenase ALKBH3 with N-terminal His-tag, expressed in E. coli) Alpha-ketoglutarate-dependent …: MEEKRRRARVQGAWAAPVKSQAIAQPATTAKSHLHQKPGQTWKNKEHHLSDREFVFKEPQQVVRRAPEPRVIDREGVYEISLSPTGVSRVCLYPGFVDVKEADWILEQLCQDVPWKQRTGIREDITYQQPRLTAWYGELPYTYSRITMEPNPHWHPVLRTLKNRIEENTGHTFNSLLCNLYRNEKDSVDWHSDDEPSLGRCPIIASLSFGATRTFEMRKKPPPEENGDYTYVERVKIPLDHGTLLIMEGATQADWQHRVPKEYHSREPRVNLTFRTVYPDPRGAPW | 52 ± 7 | ~50 | 25 ± 2 | 45.5 °C and 45.6 °C | 45.6 ± 0.7 | 42 | 133 ± 2 cal/mol·K | 43 ± 1 | 3.4 ± 0.1 |  |  | 
Y143F ALKBH3: ALKBH3 mutant, Tyr143 replaced with Phe (protein, UniProt Q96Q83 1-286, looked up, variant Y143F) Alpha-ketoglutarate-dependent …: MEEKRRRARVQGAWAAPVKSQAIAQPATTAKSHLHQKPGQTWKNKEHHLSDREFVFKEPQQVVRRAPEPRVIDREGVYEISLSPTGVSRVCLYPGFVDVKEADWILEQLCQDVPWKQRTGIREDITYQQPRLTAWYGELPYTFSRITMEPNPHWHPVLRTLKNRIEENTGHTFNSLLCNLYRNEKDSVDWHSDDEPSLGRCPIIASLSFGATRTFEMRKKPPPEENGDYTYVERVKIPLDHGTLLIMEGATQADWQHRVPKEYHSREPRVNLTFRTVYPDPRGAPW |  | 52 ± 4 | 23 ± 2 | 43.5 ± 0.4 °C |  | 75 ± 5 | 236 ± 3 cal/mol·K |  | 4.7 ± 0.3 | 32 | 103 | 2.1

The next lines start with results.

Kd ([1]; listed as wt) [µM] | Kd [1] [µM] | Kd [2] [µM] | Molecule | Tm [3] | Tm ([3]; listed as wt) [°C] | ΔH (enthalpy of unfolding) [3] [kcal/mol] | ΔS (entropy of unfolding) [3] | ΔH (enthalpy of unfolding) ([3]; listed as wt) [kcal/mol] | ΔG^298 [3] [kcal/mol] | increase in ΔH relative to wt [3] [kcal/mol] | increase in ΔS relative to wt [3] [cal/mol·K] | reduction in melting temperature relative to wt [3] [°C]
 | 34 ± 2 | 20 ± 2 | H191A ALKBH3: ALKBH3 mutant, His191 replaced with Ala (protein, UniProt Q96Q83 1-286, looked up, variant H191A) Alpha-ketoglutarate-dependent …: MEEKRRRARVQGAWAAPVKSQAIAQPATTAKSHLHQKPGQTWKNKEHHLSDREFVFKEPQQVVRRAPEPRVIDREGVYEISLSPTGVSRVCLYPGFVDVKEADWILEQLCQDVPWKQRTGIREDITYQQPRLTAWYGELPYTYSRITMEPNPHWHPVLRTLKNRIEENTGHTFNSLLCNLYRNEKDSVDWASDDEPSLGRCPIIASLSFGATRTFEMRKKPPPEENGDYTYVERVKIPLDHGTLLIMEGATQADWQHRVPKEYHSREPRVNLTFRTVYPDPRGAPW | 42.7 ± 0.1 °C |  | 127 ± 9 | 403 cal/mol·K and 403 ± 0.4 cal/mol·K |  | 6.9 ± 0.5 |  |  | 
 | 53 ± 10 | 25 ± 3 | Y143A ALKBH3: ALKBH3 mutant, Tyr143 replaced with Ala (protein, UniProt Q96Q83 1-286, looked up, variant Y143A) Alpha-ketoglutarate-dependent …: MEEKRRRARVQGAWAAPVKSQAIAQPATTAKSHLHQKPGQTWKNKEHHLSDREFVFKEPQQVVRRAPEPRVIDREGVYEISLSPTGVSRVCLYPGFVDVKEADWILEQLCQDVPWKQRTGIREDITYQQPRLTAWYGELPYTASRITMEPNPHWHPVLRTLKNRIEENTGHTFNSLLCNLYRNEKDSVDWHSDDEPSLGRCPIIASLSFGATRTFEMRKKPPPEENGDYTYVERVKIPLDHGTLLIMEGATQADWQHRVPKEYHSREPRVNLTFRTVYPDPRGAPW | 44.2 ± 0.2 °C |  | 54 ± 2 | 170 ± 0.6 cal/mol·K |  | 3.3 ± 0.1 |  |  | 
 | 67 ± 8 | 24 ± 2 | L177A ALKBH3: ALKBH3 mutant, Leu177 replaced with Ala (protein, UniProt Q96Q83 1-286, looked up, variant L177A) Alpha-ketoglutarate-dependent …: MEEKRRRARVQGAWAAPVKSQAIAQPATTAKSHLHQKPGQTWKNKEHHLSDREFVFKEPQQVVRRAPEPRVIDREGVYEISLSPTGVSRVCLYPGFVDVKEADWILEQLCQDVPWKQRTGIREDITYQQPRLTAWYGELPYTYSRITMEPNPHWHPVLRTLKNRIEENTGHTFNSLACNLYRNEKDSVDWHSDDEPSLGRCPIIASLSFGATRTFEMRKKPPPEENGDYTYVERVKIPLDHGTLLIMEGATQADWQHRVPKEYHSREPRVNLTFRTVYPDPRGAPW | 44.5 ± 0.6 °C |  | 79 ± 5 | 249 ± 1.3 cal/mol·K |  | 4.8 ± 0.4 |  |  | 1.1
